Experimental data from paper PMC2669960 (The EMBO Journal, 2009).
Where two headings read alike, the source gives them in different places.

T1: His–Ska1 (full length), tag cleaved (human, UniProt Q96BD8 1-255)
T1 sequence: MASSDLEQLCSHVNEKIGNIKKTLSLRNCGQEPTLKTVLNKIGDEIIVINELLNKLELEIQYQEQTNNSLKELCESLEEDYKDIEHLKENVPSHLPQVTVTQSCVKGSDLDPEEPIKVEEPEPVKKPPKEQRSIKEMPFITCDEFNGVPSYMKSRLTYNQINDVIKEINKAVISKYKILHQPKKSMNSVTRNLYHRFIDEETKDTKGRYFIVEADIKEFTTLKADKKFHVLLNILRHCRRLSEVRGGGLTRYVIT

T2: GST–Ska1 (full length), tag cleaved (human, UniProt Q96BD8 1-255)
T2 sequence: T1 sequence

B1: His–Ska1 (N), tag cleaved (domain or fragment)
chain: MASSDLEQLCSHVNEKIGNIKKTLSLRNCGQEPTLKTVLNKIGDEIIVINELLNKLELEIQYQEQTNNSLKELCESLEEDYKDIEHLKENVPSHLPQVTVTQSCVKGSDLDPEEPIKVEEPEPVKKPPKE
B2: His–Ska3 (N), tag cleaved (domain or fragment)
chain: MDPIRSFCGKLRSLASTLDCETARLQRALDGEESDFEDYPMRILYDLHSEVQTLKDDVNILLDKARLENQEGIDFIKATKVLMEKNSMDIMKIREYFQKYGYSPRVKKNSVHEQEAINSDPELSNCENFQKTDVKDDLSDPPVASSCISEKSPRSP
B3: untagged Ska2 (natural protein)
chain: MEAEVDKLELMFQKAESDLDYIQYRLEYEIKTNHPDSASEKNPVTLLKELSVIKSRYQTLYARFKPVAVEQKESKSRICATVKKTMNMIQKLQKQTDLELSPLTKEEKTAAEQFKFHMPDL
B4: GST–Ska2 (full length), tag cleaved (natural protein)
chain: B3 chain

Assays:
Assay in all cases: co-purification
[1] = biological target: B2
[2] = biological target: T1, His–Ska1 (full length), tag cleaved
[3] = biological target: T2, GST–Ska1 (full length), tag cleaved
[4] = biological target: T2, GST–Ska1 (full length), tag cleaved; remark: listed apart in the source
[5] = biological target: B2; remark: listed apart in the source
[6] = biological target: B1
[7] = biological target: T1, His–Ska1 (full length), tag cleaved; remark: listed apart in the source

Binder: B1
- binding result [1]: binds

Binder: B2
- binding result [2]: binds
- binding result [3]: binds

Binder: B3
- binding result [4]: binds

Binder: B4
- binding result [5]: binds
- binding result [6]: binds
- binding result [7]: binds
